Like-named read-outs stand apart in the source and are kept apart here.
T1: 5T4 (on 5T4-expressing MDA-MB-468 cells) (human, UniProt Q13641 32-420)
T1 sequence (looked up): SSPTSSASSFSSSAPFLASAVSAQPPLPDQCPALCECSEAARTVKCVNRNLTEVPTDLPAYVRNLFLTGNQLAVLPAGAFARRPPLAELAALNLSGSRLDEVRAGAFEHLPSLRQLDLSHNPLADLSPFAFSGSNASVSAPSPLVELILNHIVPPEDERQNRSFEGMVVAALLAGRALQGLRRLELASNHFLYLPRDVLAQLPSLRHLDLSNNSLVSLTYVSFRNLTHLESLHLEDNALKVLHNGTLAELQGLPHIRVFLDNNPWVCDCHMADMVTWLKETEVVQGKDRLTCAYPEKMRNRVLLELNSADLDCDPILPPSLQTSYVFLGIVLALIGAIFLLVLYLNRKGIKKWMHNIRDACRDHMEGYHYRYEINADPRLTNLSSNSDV


Key:
[1] = biological target: T2, PSMA (on PSMA-expressing LNCaP-C4.2 cells) (human, UniProt Q04609 1-750); experiment: cell-based or functional assay
T2 sequence (Q04609 whole entry): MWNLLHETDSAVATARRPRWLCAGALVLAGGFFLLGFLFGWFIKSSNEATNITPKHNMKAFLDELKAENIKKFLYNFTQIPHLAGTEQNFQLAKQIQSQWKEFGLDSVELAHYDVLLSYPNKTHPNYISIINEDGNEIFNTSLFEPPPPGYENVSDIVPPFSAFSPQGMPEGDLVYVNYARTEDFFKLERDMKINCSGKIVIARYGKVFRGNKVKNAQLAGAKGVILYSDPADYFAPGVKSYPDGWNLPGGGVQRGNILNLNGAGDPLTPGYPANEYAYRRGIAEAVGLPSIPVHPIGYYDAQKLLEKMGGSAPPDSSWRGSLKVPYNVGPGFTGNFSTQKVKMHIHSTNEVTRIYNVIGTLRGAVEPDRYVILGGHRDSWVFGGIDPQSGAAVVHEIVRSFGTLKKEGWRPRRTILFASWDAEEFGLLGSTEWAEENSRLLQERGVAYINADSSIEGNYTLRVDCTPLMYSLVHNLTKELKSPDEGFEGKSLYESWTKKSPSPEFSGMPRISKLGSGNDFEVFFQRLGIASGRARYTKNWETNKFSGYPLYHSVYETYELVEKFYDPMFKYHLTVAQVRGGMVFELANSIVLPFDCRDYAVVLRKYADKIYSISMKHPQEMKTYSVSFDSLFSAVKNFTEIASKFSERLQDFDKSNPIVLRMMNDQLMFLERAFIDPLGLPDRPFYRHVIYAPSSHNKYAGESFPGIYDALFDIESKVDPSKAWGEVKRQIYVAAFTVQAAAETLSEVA

[2] = biological target: T2, PSMA (on PSMA-expressing LNCaP-C4.2 …); experiment: cell-based or functional assay; remark: listed apart in the source
[3] = biological target: T1, 5T4 (on 5T4-expressing MDA-MB-468 cells); experiment: cell-based or functional assay
[4] = biological target: T1, 5T4 (on 5T4-expressing MDA-MB-468 cells); experiment: cellular binding on 5T4-expressing MDA-MB-468 cells

| Binder | % efficacy, in vitro cytotoxicity on MDA-MB-468 at ~100 nM [3] [%] | IC50, in vitro cytotoxicity on 5T4-positive cell line MDA-MB-468 [3] [nM] | further results |
| --- | --- | --- | --- |
| ADC-HC41 (SYD1091), engineered cysteine anti-PSMA (VH S41C) antibody conjugated to vc-seco-DUBA (antibody, human IgG1, kappa, V domains shown, vc-seco-DUBA linker drug on engineered Cys 41 (Kabat numbering); average DAR 1.7) VH: EVQLVQSGAEVKKPGASVKISCKTSGYTFTEYTIHWVKQACGKGLEWIGNINPNNGGTTYNQKFEDRATLTVDKSTSTAYMELSSLRSEDTAVYYCAAGWNFDYWGQGTTVTVSS VL: DIVMTQSPSSLSASVGDRVTITCKASQDVGTAVDWYQQKPGKAPKLLIYWASTRHTGVPDRFTGSGSGTDFTLTISSLQPEDFADYFCQQYNSYPLTFGGGTKLEIKR | – | – | IC50, in vitro cytotoxicity on PSMA-positive cell line LNCaP-C4.2 [1]: 0.25 nM |
| ADC-HC41 (vc-MMAE), anti-PSMA antibody (HC S41C) conjugated to vc-MMAE (antibody, human IgG1, kappa, V domains shown, vc-MMAE linker drug on engineered Cys 41 (Kabat numbering); average DAR 1.8) VH: EVQLVQSGAEVKKPGASVKISCKTSGYTFTEYTIHWVKQACGKGLEWIGNINPNNGGTTYNQKFEDRATLTVDKSTSTAYMELSSLRSEDTAVYYCAAGWNFDYWGQGTTVTVSS VL: DIVMTQSPSSLSASVGDRVTITCKASQDVGTAVDWYQQKPGKAPKLLIYWASTRHTGVPDRFTGSGSGTDFTLTISSLQPEDFADYFCQQYNSYPLTFGGGTKLEIKR | – | – | IC50, in vitro cytotoxicity on PSMA-positive cell line LNCaP-C4.2 [2]: 0.39 nM |
| H8-HC40, engineered cysteine anti-5T4 (HC S40C) H8 antibody conjugated to vc-seco-DUBA (antibody, human IgG1, kappa, V domains shown, vc-seco-DUBA linker drug on engineered Cys 40; average DAR 1.7) VH: QVQLVQSGAEVKKPGASVKVSCKASGYSFTGYYMHWVKQCPGQGLEWIGRINPNNGVTLYNQKFKDRVTMTRDTSISTAYMELSRLRSDDTAVYYCARSTMITNYVMDYWGQGTLVTVSS VL: DIVMTQSPDSLAVSLGERATINCKASQSVSNDVAWYQQKPGQSPKLLISYTSSRYAGVPDRFSGSGSGTDFTLTISSLQAEDVAVYFCQQDYNSPPTFGGGTKLEIKR | 88 | 0.07 | – |
| wild-type H8 antibody (anti-5T4) (antibody, human IgG1, kappa, V domains shown, Naked antibody, human IgG1 kappa) VH: QVQLVQSGAEVKKPGASVKVSCKASGYSFTGYYMHWVKQSPGQGLEWIGRINPNNGVTLYNQKFKDRVTMTRDTSISTAYMELSRLRSDDTAVYYCARSTMITNYVMDYWGQGTLVTVSS VL: DIVMTQSPDSLAVSLGERATINCKASQSVSNDVAWYQQKPGQSPKLLISYTSSRYAGVPDRFSGSGSGTDFTLTISSLQAEDVAVYFCQQDYNSPPTFGGGTKLEIKR | – | – | binding result [4]: binds |
| H8-HC41, engineered cysteine anti-5T4 (VH P41C) H8 antibody conjugated to vc-seco-DUBA (antibody, human IgG1, kappa, V domains shown, vc-seco-DUBA linker drug on engineered Cys 41; average DAR 1.7) VH: QVQLVQSGAEVKKPGASVKVSCKASGYSFTGYYMHWVKQSCGQGLEWIGRINPNNGVTLYNQKFKDRVTMTRDTSISTAYMELSRLRSDDTAVYYCARSTMITNYVMDYWGQGTLVTVSS VL: DIVMTQSPDSLAVSLGERATINCKASQSVSNDVAWYQQKPGQSPKLLISYTSSRYAGVPDRFSGSGSGTDFTLTISSLQAEDVAVYFCQQDYNSPPTFGGGTKLEIKR | 88 | 0.07 | – |
